# Reference: patent US20160376339A1 (CURACLE, published 2016)
# Where no end group is shown, it is not given here.
# T1: Flag-PDK1 (UniProt O15530 1-556, limits assumed)
# T1 construct: Expressed in HEK293T cells for co-immunoprecipitation; not shown: Flag tag
# T1 sequence (looked up): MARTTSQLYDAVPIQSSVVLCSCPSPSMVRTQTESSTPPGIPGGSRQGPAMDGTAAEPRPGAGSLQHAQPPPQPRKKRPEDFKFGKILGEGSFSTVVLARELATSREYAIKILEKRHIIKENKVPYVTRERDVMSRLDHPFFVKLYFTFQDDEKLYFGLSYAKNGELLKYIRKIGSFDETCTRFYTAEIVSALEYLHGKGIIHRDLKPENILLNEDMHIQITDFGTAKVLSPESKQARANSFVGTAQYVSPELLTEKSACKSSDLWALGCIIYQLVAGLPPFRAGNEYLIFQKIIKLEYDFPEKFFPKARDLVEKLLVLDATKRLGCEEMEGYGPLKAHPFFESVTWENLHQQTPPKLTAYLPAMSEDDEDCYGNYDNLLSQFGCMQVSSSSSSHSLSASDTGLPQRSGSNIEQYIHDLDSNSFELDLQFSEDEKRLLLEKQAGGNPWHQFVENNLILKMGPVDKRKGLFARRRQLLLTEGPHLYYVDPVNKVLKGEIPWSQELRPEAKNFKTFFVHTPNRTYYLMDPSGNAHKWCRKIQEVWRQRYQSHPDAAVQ
# T2: His-tagged PH domain of PDK1 (purified) (UniProt O15530 409-556, limits assumed)
# T2 construct: domain: PH domain; Expressed in E. coli BL21 and purified on Ni2+-NTA-agarose; also called His-PH; His-tagged PDK1PH; not shown: His tag from vector pET32a
# T2 sequence (looked up): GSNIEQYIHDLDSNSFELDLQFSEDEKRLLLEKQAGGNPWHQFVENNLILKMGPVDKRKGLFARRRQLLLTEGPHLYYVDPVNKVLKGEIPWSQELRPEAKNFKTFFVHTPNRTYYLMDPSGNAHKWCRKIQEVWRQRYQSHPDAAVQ
# Experiments:
# [1] = molecular target: T1, Flag-PDK1; assay: co-immunoprecipitation of GFP-tagged truncated AMIGO2 with Flag-PDK1
# From the text: The immunoprecipitated proteins were obtained by using protein A-agarose beads (Upstate Biotechnology), and detected by SDS-PAGE.
# [2] = molecular target: T2, His-tagged PH domain of PDK1 (purified); assay: Far-western analysis and GST pull-down with purified proteins
# Method: GST and His-fused proteins (1.5 mg/ml:1.5 mg/ml) were incubated for 2 h at 4° C., immobilized on Ni²⁺-NTA resin or glutathione-Sepharose 4B beads, and incubated for 30 min. Proteins were then eluted with elution buffer (25 mM NaPi, 300 mM NaCl, 5 mM β-mercaptoethanol, 500 mM imidazole, pH 7.5), western blot was performed with anti-GST and His antibodies.
# Briefly, purified GST-tagged proteins (1 μg) were loaded and separated, and then transferred to PVDF membranes. The membranes were denatured and renatured, incubated with purified His-tagged PH domain proteins (10 μg), and then detected with anti-His antibody.
# [3] = molecular target: T1, Flag-PDK1; assay: co-immunoprecipitation of GFP-tagged deletion mutants with Flag-PDK1
Binder,binding result [2],also measured
"AMIGO2^457aa (GFP-tagged AMIGO2 truncated after residue 457) (receptor, The range 1-457 is read from the name and from the reverse primer with its stop codon; also called 457aa construct; not shown: EGFP tag) VCPTACICATDIVSCTNKNLSKVPGNLFRLIKRLDLSYNRIGLLDSEWIPVSFAKLNTLILRHNNITSISTGSFSTTPNLKCLDLSSNKLKTVKNAVFQELKVLEVLLLYNNHISYLDPSAFGGLSQLQKLYLSGNFLTQFPMDLYVGRFKLAELMFLDVSYNRIPSMPMHHINLVPGKQLRGIYLHGNPFVCDCSLYSLLVFWYRRHFSSVMDFKNDYTCRLWSDSRHSRQVLLLQDSFMNCSDSIINGSFRALGFIHEAQVGERLMVHCDSKTGNANTDFIWVGPDNRLLEPDKEMENFYVFHNGSLVIESPRFEDAGVYSCIAMNKQRLLNETVDVTINVSNFTVSRSHAHEAFNTAFTTLAACVASIVLVLLYLYLTPCPCKCKTKRQKNMLHQSNAHSSILSPGPASDASADE",,binding result [1]: no binding
"TPCPCKCKTKRQKNMLHQSNAHSSILSPGPASDAS (other, cysteine pairing not given here; also: GST tag of pGEX 4T1 (sequence not given here), Same forward primer and linker as GST-CD; not shown: glutathione S-transferase tag of vector pGEX 4T1) [GST-tagged AMIGO2 420-454]",no binding,
"TPCPCKCKTKRQKNMLHQSNAHSSILSPGPASDASADERKAGAGK (other, cysteine pairing not given here; also: GST tag of pGEX 4T1 (sequence not given here), Same forward primer and linker as GST-CD; not shown: glutathione S-transferase tag of vector pGEX 4T1) [GST-tagged AMIGO2 420-464]",no binding,
"AMIGO2^ΔCD (GFP-tagged AMIGO2 with residues 420-522 deleted) (receptor, The range 1-419 is derived from it; also called AMIGO2 without cytosolic Domain; not shown: EGFP tag) VCPTACICATDIVSCTNKNLSKVPGNLFRLIKRLDLSYNRIGLLDSEWIPVSFAKLNTLILRHNNITSISTGSFSTTPNLKCLDLSSNKLKTVKNAVFQELKVLEVLLLYNNHISYLDPSAFGGLSQLQKLYLSGNFLTQFPMDLYVGRFKLAELMFLDVSYNRIPSMPMHHINLVPGKQLRGIYLHGNPFVCDCSLYSLLVFWYRRHFSSVMDFKNDYTCRLWSDSRHSRQVLLLQDSFMNCSDSIINGSFRALGFIHEAQVGERLMVHCDSKTGNANTDFIWVGPDNRLLEPDKEMENFYVFHNGSLVIESPRFEDAGVYSCIAMNKQRLLNETVDVTINVSNFTVSRSHAHEAFNTAFTTLAACVASIVLVLLYLYL",,binding result [3]: no binding
